According to patent US12630600B2 (MEDIMMUNE LIMITED, priority 2022, dated 2026):
Starred links: 1 amine or outer side, 2 acyl side, 3 side chain; linkers in the order of their positions; H or OH if unused. Non-standard residues stand in square brackets, D forms with d. Groups on a side chain read outwards from the residue. No end group written: not given here. *: point of attachment. C20 diacid = O=C(O)CCCCCCCCCCCCCCCCCCC(=O)*; C18 diacid = O=C(O)CCCCCCCCCCCCCCCCC(=O)*; γGlu = O=C(O)[C@H](CCC(=O)[*:2])N[*:1]; αMeF = C[C@](N)(Cc1ccccc1)C(=O)O; (PEG)2 = polyethylene glycol 2; PEG4 = NCCOCCOCCOCCOCCC(=O)O; AEEA = NCCOCCOCC(=O)O; Aib = CC(C)(N)C(=O)O

What was measured:
human GLP-1 receptor = human GLP-1 receptor (human, UniProt P43220); test: cell-based or functional assay
human glucagon receptor = human glucagon receptor (human, UniProt P47871); test: cell-based or functional assay

Binder | hGLP-1R EC50 (pM) (human GLP-1 receptor) | hGluc-R EC50 (pM) (human glucagon receptor)
H[Aib]HGS[αMeF]TSDVSK[αMeF]LDSRAAK([(PEG)2-(PEG)2-γGlu-γGlu-C18 diacid])D[αMeF]VQ[Aib]IANT-NH2 [Peptide 258] | 34 | 93.1
H[Aib]HGS[αMeF]TSDVSK[αMeF]LDSRAAK([AEEA-γGlu-AEEA-C18 diacid])D[αMeF]VQ[Aib]IANT-NH2 [Peptide 259] | 19.1 | 34.8
H[Aib]HGS[αMeF]TSDVSK[αMeF]LDSRAAK([AEEA-γGlu-AEEA-γGlu-C18 diacid])D[αMeF]VQ[Aib]IANT-NH2 [Peptide 260] | 33.1 | 76.9
H[Aib]HGS[αMeF]TSDVSK[αMeF]LDSRAAK([PEG4-γGlu-C18 diacid])D[αMeF]VQ[Aib]IANT-NH2 (N-terminus assumed; SMILES CC[C@H](C)[C@H](NC(=O)C(C)(C)NC(=O)[C@H](CCC(N)=O)NC(=O)[C@@H](NC(=O)[C@](C)(Cc1ccccc1)NC(=O)[C@H](CC(=O)O)NC(=O)[C@H](CCCCNC(=O)CCOCCOCCOCCOCCNC(=O)CC[C@H](NC(=O)CCCCCCCCCCCCCCCCC(=O)O)C(=O)O)NC(=O)[C@H](C)NC(=O)[C@H](C)NC(=O)[C@H](CCCNC(=N)N)NC(=O)[C@H](CO)NC(=O)[C@H](CC(=O)O)NC(=O)[C@H](CC(C)C)NC(=O)[C@](C)(Cc1ccccc1)NC(=O)[C@H](CCCCN)NC(=O)[C@H](CO)NC(=O)[C@@H](NC(=O)[C@H](CC(=O)O)NC(=O)[C@H](CO)NC(=O)[C@@H](NC(=O)[C@](C)(Cc1ccccc1)NC(=O)[C@H](CO)NC(=O)CNC(=O)[C@H](Cc1c[nH]cn1)NC(=O)C(C)(C)NC(=O)[C@@H](N)Cc1c[nH]cn1)[C@@H](C)O)C(C)C)C(C)C)C(=O)N[C@@H](C)C(=O)N[C@@H](CC(N)=O)C(=O)N[C@H](C(N)=O)[C@@H](C)O) [Peptide 261] | 16.2 | 29.4
H[Aib]HGS[αMeF]TSDVSK[αMeF]LDSRAAK([AEEA-γGlu-C18 diacid])D[αMeF]VQ[Aib]IANT-NH2 [Peptide 262] | 13 | 11.7
H[Aib]HGS[αMeF]TSDVSK[αMeF]LDSRAAK([PEG4-γGlu-γGlu-C18 diacid])D[αMeF]VQ[Aib]IANT-NH2 [Peptide 263] | 25.4 | 64.6
H[Aib]HGS[αMeF]TSDVSK[αMeF]LDSRAAK([(PEG)2-(PEG)2-γGlu-γGlu-C20 diacid])D[αMeF]VQ[Aib]IANT-NH2 [Peptide 264] | 69.5 | 297
H[Aib]HGS[αMeF]TSDVSK[αMeF]LDSRAAK([AEEA-γGlu-AEEA-C20 diacid])D[αMeF]VQ[Aib]IANT-NH2 [Peptide 265] | 71.2 | 131
H[Aib]HGS[αMeF]TSDVSK[αMeF]LDSRAAK([AEEA-γGlu-AEEA-γGlu-C20 diacid])D[αMeF]VQ[Aib]IANT-NH2 [Peptide 266] | 66.5 | 293
H[Aib]HGS[αMeF]TSDVSK[αMeF]LDSRAAK([PEG4-γGlu-C20 diacid])D[αMeF]VQ[Aib]IANT-NH2 [Peptide 267] | 65.6 | 128
H[Aib]HGS[αMeF]TSDVSK[αMeF]LDSRAAK([AEEA-γGlu-C20 diacid])D[αMeF]VQ[Aib]IANT-NH2 (N-terminus assumed; SMILES CC[C@H](C)[C@H](NC(=O)C(C)(C)NC(=O)[C@H](CCC(N)=O)NC(=O)[C@@H](NC(=O)[C@](C)(Cc1ccccc1)NC(=O)[C@H](CC(=O)O)NC(=O)[C@H](CCCCNC(=O)COCCOCCNC(=O)CC[C@H](NC(=O)CCCCCCCCCCCCCCCCCCC(=O)O)C(=O)O)NC(=O)[C@H](C)NC(=O)[C@H](C)NC(=O)[C@H](CCCNC(=N)N)NC(=O)[C@H](CO)NC(=O)[C@H](CC(=O)O)NC(=O)[C@H](CC(C)C)NC(=O)[C@](C)(Cc1ccccc1)NC(=O)[C@H](CCCCN)NC(=O)[C@H](CO)NC(=O)[C@@H](NC(=O)[C@H](CC(=O)O)NC(=O)[C@H](CO)NC(=O)[C@@H](NC(=O)[C@](C)(Cc1ccccc1)NC(=O)[C@H](CO)NC(=O)CNC(=O)[C@H](Cc1c[nH]cn1)NC(=O)C(C)(C)NC(=O)[C@@H](N)Cc1c[nH]cn1)[C@@H](C)O)C(C)C)C(C)C)C(=O)N[C@@H](C)C(=O)N[C@@H](CC(N)=O)C(=O)N[C@H](C(N)=O)[C@@H](C)O) [Peptide 268] | 39.5 | 29.3
H[Aib]HGS[αMeF]TSDVSK[αMeF]LDSRAAK([PEG4-γGlu-γGlu-C20 diacid])D[αMeF]VQ[Aib]IANT-NH2 (N-terminus assumed; SMILES CC[C@H](C)[C@H](NC(=O)C(C)(C)NC(=O)[C@H](CCC(N)=O)NC(=O)[C@@H](NC(=O)[C@](C)(Cc1ccccc1)NC(=O)[C@H](CC(=O)O)NC(=O)[C@H](CCCCNC(=O)CCOCCOCCOCCOCCNC(=O)CC[C@H](NC(=O)CC[C@H](NC(=O)CCCCCCCCCCCCCCCCCCC(=O)O)C(=O)O)C(=O)O)NC(=O)[C@H](C)NC(=O)[C@H](C)NC(=O)[C@H](CCCNC(=N)N)NC(=O)[C@H](CO)NC(=O)[C@H](CC(=O)O)NC(=O)[C@H](CC(C)C)NC(=O)[C@](C)(Cc1ccccc1)NC(=O)[C@H](CCCCN)NC(=O)[C@H](CO)NC(=O)[C@@H](NC(=O)[C@H](CC(=O)O)NC(=O)[C@H](CO)NC(=O)[C@@H](NC(=O)[C@](C)(Cc1ccccc1)NC(=O)[C@H](CO)NC(=O)CNC(=O)[C@H](Cc1c[nH]cn1)NC(=O)C(C)(C)NC(=O)[C@@H](N)Cc1c[nH]cn1)[C@@H](C)O)C(C)C)C(C)C)C(=O)N[C@@H](C)C(=O)N[C@@H](CC(N)=O)C(=O)N[C@H](C(N)=O)[C@@H](C)O) [Peptide 269] | 52 | 271
H[Aib]HGS[αMeF]TSDVSK[αMeF]LDSRAAK([γGlu-γGlu-C18 diacid])D[αMeF]VQ[Aib]IANT-NH2 [Peptide 270] | 24.4 | 31.3
H[Aib]HGS[αMeF]TSDVSK[αMeF]LDSRAAK([γGlu-C18 diacid])D[αMeF]VQ[Aib]IANT-NH2 (N-terminus assumed; SMILES CC[C@H](C)[C@H](NC(=O)C(C)(C)NC(=O)[C@H](CCC(N)=O)NC(=O)[C@@H](NC(=O)[C@](C)(Cc1ccccc1)NC(=O)[C@H](CC(=O)O)NC(=O)[C@H](CCCCNC(=O)CC[C@H](NC(=O)CCCCCCCCCCCCCCCCC(=O)O)C(=O)O)NC(=O)[C@H](C)NC(=O)[C@H](C)NC(=O)[C@H](CCCNC(=N)N)NC(=O)[C@H](CO)NC(=O)[C@H](CC(=O)O)NC(=O)[C@H](CC(C)C)NC(=O)[C@](C)(Cc1ccccc1)NC(=O)[C@H](CCCCN)NC(=O)[C@H](CO)NC(=O)[C@@H](NC(=O)[C@H](CC(=O)O)NC(=O)[C@H](CO)NC(=O)[C@@H](NC(=O)[C@](C)(Cc1ccccc1)NC(=O)[C@H](CO)NC(=O)CNC(=O)[C@H](Cc1c[nH]cn1)NC(=O)C(C)(C)NC(=O)[C@@H](N)Cc1c[nH]cn1)[C@@H](C)O)C(C)C)C(C)C)C(=O)N[C@@H](C)C(=O)N[C@@H](CC(N)=O)C(=O)N[C@H](C(N)=O)[C@@H](C)O) [Peptide 271] | 54.6 | 28
H[Aib]HGS[αMeF]TSDVSK[αMeF]LDSRAAK([AEEA-AEEA-C18 diacid])D[αMeF]VQ[Aib]IANT-NH2 [Peptide 272] | 15.7 | 14.3
H[Aib]HGS[αMeF]TSDVSK[αMeF]LDSRAAK([AEEA-C18 diacid])D[αMeF]VQ[Aib]IANT-NH2 [Peptide 273] | 22.1 | 23.3
H[Aib]HGS[αMeF]TSDVSK[αMeF]LDSRAAK([AEEA-γGlu-γGlu-C18 diacid])D[αMeF]VQ[Aib]IANT-NH2 [Peptide 274] | 27.1 | 31.3
H[Aib]HGS[αMeF]TSDVSK[αMeF]LDSRAAK([γGlu-γGlu-C20 diacid])D[αMeF]VQ[Aib]IANT-NH2 [Peptide 275] | 111 | 175
H[Aib]HGS[αMeF]TSDVSK[αMeF]LDSRAAK([γGlu-C20 diacid])D[αMeF]VQ[Aib]IANT-NH2 [Peptide 276] | 143 | 91.4
H[Aib]HGS[αMeF]TSDVSK[αMeF]LDSRAAK([AEEA-AEEA-C20 diacid])D[αMeF]VQ[Aib]IANT-NH2 [Peptide 277] | 49.5 | 57.3
H[Aib]HGS[αMeF]TSDVSK[αMeF]LDSRAAK([AEEA-C20 diacid])D[αMeF]VQ[Aib]IANT-NH2 [Peptide 278] | 78.9 | 83.5
H[Aib]HGS[αMeF]TSDVSK[αMeF]LDSRAAK([AEEA-γGlu-γGlu-C20 diacid])D[αMeF]VQ[Aib]IANT-NH2 [Peptide 279] | 86.5 | 150
H[Aib]HGS[αMeF]TSDVSK[αMeF]LDSRAAK([AEEA-AEEA-γGlu-C20 diacid])D[αMeF]VQ[Aib]IANT-NH2 [Peptide 280] | 78.3 | 155
